Consider two molecules from patent US20100266609A1 (UCB, published 2010).

For orientation: Kd means the equilibrium constant for the complex coming apart.

Test [1] concerns the target T1, Recombinant IL-17A/F heterodimer (human).
T1 construct: also called human recombinant IL-17A/F heterodimer; heterodimer A/F
The test is described as follows: SPR (Biacore 3000, 25°C), antibody captured by anti-mouse IgG Fc, cytokine titrated from 25 nM. The protocol: All experiments were performed at 25° C.
Double referenced background subtracted binding curves were analysed using the BIAevaluation software (version 3.2) following standard procedures. Kinetic parameters were determined from the fitting algorithm.
(SPR reads the build-up and loss of mass on a sensor chip optically.)

A further test concerns the target T2, IL-17 C (UniProt Q9P0M4 19-197, limits assumed).
T2 sequence (looked up): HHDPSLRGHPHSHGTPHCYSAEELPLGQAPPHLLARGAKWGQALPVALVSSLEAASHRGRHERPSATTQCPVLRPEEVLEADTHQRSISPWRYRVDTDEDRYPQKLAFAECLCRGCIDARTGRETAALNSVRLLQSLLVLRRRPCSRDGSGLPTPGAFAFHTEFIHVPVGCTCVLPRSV
The experiment in a line: SPR (Biacore 3000), antibody captured by anti-human IgG Fc, cytokine in solution. Here is the method: (§1) BIA (Biamolecular Interaction Analysis) was performed using a Biacore 3000 (Biacore AB). All experiments were performed at 25° C. Affinipure Fc Fragment goat anti-human IgG, Fc fragment specific (Jackson ImmunoResearch) was immobilised on a CM5 Sensor Chip via amine coupling chemistry to a capture level of ≈6000 response units (RUs). HSS-EP buffer (10 mM HEPES pH 7.4, 0.15 M NaCl, 3 mM EDTA, 0.005% Surfactant P20, Biacore AB) was used as the running buffer with a flow rate of 10 μl/min. […] The surface was regenerated by a 30 μL injections of 40 mM HCl, followed by one 5 μL injection of 5 mM NaOH.
(§2) Background subtraction binding curves were double referenced and analysed using the BIAevaluation software (version 3.2) following standard procedures. Kinetic parameters were determined from the fitting algorithm.

Another test addresses T3, IL-17 E (UniProt Q9H293 33-177, limits assumed).
T3 sequence (looked up): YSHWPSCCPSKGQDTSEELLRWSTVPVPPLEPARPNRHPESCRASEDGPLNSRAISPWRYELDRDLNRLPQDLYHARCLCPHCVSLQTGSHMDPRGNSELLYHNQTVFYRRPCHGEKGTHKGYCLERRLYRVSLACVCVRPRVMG
The description is as above. Here is the method: as §1, §2

The target of a further test is T4, IL-17 D (UniProt Q8TAD2 18-202, limits assumed).
T4 sequence (looked up): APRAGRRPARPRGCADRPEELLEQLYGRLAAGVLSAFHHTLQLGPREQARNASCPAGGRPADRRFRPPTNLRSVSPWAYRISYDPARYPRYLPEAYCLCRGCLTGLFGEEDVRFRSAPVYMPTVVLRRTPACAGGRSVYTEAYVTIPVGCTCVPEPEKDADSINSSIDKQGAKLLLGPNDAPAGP
The test is described as above. The protocol:
as §1, §2

In another test the target is T5, IL-17 B (UniProt Q9UHF5 21-180, limits assumed).
T5 sequence (looked up): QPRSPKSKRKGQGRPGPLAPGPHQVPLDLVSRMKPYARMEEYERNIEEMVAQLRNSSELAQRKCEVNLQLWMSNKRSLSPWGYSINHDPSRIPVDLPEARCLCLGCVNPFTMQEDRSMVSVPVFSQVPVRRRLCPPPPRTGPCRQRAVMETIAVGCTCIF
Described as above. The protocol:
as §1, §2

T1 sequence (chain, as listed by the source limits assumed): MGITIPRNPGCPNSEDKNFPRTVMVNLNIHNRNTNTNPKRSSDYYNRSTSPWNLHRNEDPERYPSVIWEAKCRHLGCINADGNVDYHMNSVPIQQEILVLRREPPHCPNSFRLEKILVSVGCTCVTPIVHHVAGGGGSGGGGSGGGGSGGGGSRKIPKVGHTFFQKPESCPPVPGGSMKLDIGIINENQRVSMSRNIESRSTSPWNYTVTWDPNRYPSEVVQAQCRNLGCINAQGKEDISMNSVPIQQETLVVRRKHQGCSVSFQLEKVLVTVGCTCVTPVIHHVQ

B1: Antibody CA028-0496 (murine IgG1 constant regions) (antibody, V domains shown)
VH: EVQLVESGGGLVQPGGSLRLSCAASGFTFSDYNMAWVRQAPGKGLEWVATITYEGRNTYYRDSVKGRFTISRDNAKNSLYLQMNSLRAEDTAVYYCASPPQYYEGSIYRLWFAHWGQGTLVTVSS
VL: AIQLTQSPSSLSASVGDRVTITCRADESVTTLMHWYQQKPGKAPKLLIYLVSNRESGVPSRFSGSGSGTDFTLTISSLQPEDFATYYCQQTWSDPWTFGQGTKVEIKR
notes: not shown: murine IgG1 heavy chain constant region; murine light chain constant region
As for B1, the Kd in test [1] was determined as 116 pM.

B2: Antibody CA028-0496 (human IgG4 constant regions) (antibody, V domains shown)
VH: B1 VH
VL: B1 VL
notes: human gamma-4 constant region with the hinge mutation S241P and human C-kappa (Km3), made in CHO cells
In the case of B2, the binding result with IL-17 C, with IL-17 E, with IL-17 D and in the test with IL-17 B was “no binding (tested: doubling dilutions from 50 nM to sub nM)” each time.
